# Measured values published in paper PMC9482650, “Quantitative fragmentomics allow affinity mapping of interactomes” (Nature Communications, 2022).
# T1: DFNB31_2, Q9P202
# T1 sequence (Q9P202 274-371, limits assumed, looked up): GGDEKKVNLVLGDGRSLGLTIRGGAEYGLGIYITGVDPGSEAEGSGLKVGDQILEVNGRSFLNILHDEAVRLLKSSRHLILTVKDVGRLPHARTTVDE
# T2: ARHGEF11, O15085
# T2 sequence (O15085 42-136, limits assumed, looked up): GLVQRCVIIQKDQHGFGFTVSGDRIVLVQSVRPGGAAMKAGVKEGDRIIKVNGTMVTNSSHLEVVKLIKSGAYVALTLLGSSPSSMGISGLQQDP
# T3: TJP3_3, O95049
# T3 sequence (O95049 375-456, limits assumed, looked up): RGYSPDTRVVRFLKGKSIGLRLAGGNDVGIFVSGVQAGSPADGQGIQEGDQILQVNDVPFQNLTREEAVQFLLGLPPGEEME
# T4: PARD3B_1, Q8TEW8
# T4 sequence (Q8TEW8 196-299, limits assumed, looked up): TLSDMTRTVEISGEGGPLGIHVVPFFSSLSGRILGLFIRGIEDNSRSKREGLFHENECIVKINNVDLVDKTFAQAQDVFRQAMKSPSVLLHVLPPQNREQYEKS
# T5: SNTG2, Q9NY99
# T5 sequence (Q9NY99 68-166, limits assumed, looked up): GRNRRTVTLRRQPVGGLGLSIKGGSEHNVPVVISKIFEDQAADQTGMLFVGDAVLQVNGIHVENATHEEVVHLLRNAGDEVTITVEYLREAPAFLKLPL
# T6: SIPA1L2, Q9P2F8
# T6 sequence (Q9P2F8 945-1036, limits assumed, looked up): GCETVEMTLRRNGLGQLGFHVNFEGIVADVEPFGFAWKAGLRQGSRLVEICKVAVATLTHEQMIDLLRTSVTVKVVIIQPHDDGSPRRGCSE
# T7: DFNB31_1, Q9P202
# T7 sequence (Q9P202 135-233, limits assumed, looked up): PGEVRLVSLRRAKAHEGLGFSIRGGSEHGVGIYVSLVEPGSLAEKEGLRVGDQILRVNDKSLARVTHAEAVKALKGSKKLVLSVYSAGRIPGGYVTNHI
# T8: RADIL, Q96JH8
# T8 sequence (Q96JH8 971-1071, limits assumed, looked up): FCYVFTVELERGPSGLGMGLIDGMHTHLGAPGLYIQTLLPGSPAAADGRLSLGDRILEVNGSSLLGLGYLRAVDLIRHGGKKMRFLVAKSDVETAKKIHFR
# T9: LNX2_3, Q8N448
# T9 sequence (Q8N448 463-564, limits assumed, looked up): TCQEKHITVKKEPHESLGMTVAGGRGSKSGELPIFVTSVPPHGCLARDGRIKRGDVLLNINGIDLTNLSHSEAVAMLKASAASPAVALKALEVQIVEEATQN
# T10: MPP2, Q14168
# T10 sequence (Q14168 180-250, limits assumed, looked up): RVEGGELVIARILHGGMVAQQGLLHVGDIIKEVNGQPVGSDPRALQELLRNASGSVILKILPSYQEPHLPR
# T11: LIN7C, Q9NUP9
# T11 sequence (Q9NUP9 88-185, limits assumed, looked up): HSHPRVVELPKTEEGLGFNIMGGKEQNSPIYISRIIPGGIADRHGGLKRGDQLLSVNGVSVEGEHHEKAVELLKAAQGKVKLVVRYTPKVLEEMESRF
# T12: GRIP1_3, Q9Y3R0
# T12 sequence (Q9Y3R0 247-346, limits assumed, looked up): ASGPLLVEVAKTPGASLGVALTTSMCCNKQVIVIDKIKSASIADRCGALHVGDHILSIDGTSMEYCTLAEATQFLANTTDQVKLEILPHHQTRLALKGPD
# B1: SLC16A7, O60669 (peptide)
# chain: SVTSERETNI
# B2: MTNR1A, P48039 (peptide)
# chain: NNNVVKVDSV
# Molecular target: TJP1_2, Q07157
# Experiment: holdup assay
# Set-up: key: below the threshold = too weak to quantify, mostly under pKd 3.1 to 4
# Conditions: plain residues with an end cap or a label only (N-terminal biotin on a linker: ado-ado)
# TJP1_2, Q07157, sequence (Q07157 181-274): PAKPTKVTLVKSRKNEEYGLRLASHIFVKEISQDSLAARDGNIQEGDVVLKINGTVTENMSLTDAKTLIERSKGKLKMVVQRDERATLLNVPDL
row,Binder,pKd
1,B1,below the threshold
2,B2,below the threshold

# Molecular target: CASK, O14936
# Experiment: holdup assay
# Set-up: key: below the threshold = too weak to quantify, mostly under pKd 3.1 to 4
# Conditions: plain residues with an end cap or a label only (N-terminal biotin on a linker: ado-ado)
# CASK, O14936, sequence (O14936 487-570): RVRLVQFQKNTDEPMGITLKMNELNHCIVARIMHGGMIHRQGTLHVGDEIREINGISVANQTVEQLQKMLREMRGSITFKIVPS
row,Binder,pKd
1,B1,below the threshold
2,B2,below the threshold

# Molecular target: T1, DFNB31_2, Q9P202
# Experiment: holdup assay
# Set-up: key: below the threshold = too weak to quantify, mostly under pKd 3.1 to 4
# Conditions: plain residues with an end cap or a label only (N-terminal biotin on a linker: ado-ado)
row,Binder,pKd
1,B1,below the threshold
2,B2,below the threshold

# Molecular target: T2, ARHGEF11, O15085
# Experiment: holdup assay
# Set-up: key: below the threshold = too weak to quantify, mostly under pKd 3.1 to 4
# Conditions: plain residues with an end cap or a label only (N-terminal biotin on a linker: ado-ado)
row,Binder,pKd
1,B1,below the threshold
2,B2,below the threshold

# Molecular target: MAGI2_2, Q86UL8
# Experiment: holdup assay
# Set-up: key: below the threshold = too weak to quantify, mostly under pKd 3.1 to 4
# Conditions: plain residues with an end cap or a label only (N-terminal biotin on a linker: ado-ado)
# MAGI2_2, Q86UL8, sequence (Q86UL8 410-522): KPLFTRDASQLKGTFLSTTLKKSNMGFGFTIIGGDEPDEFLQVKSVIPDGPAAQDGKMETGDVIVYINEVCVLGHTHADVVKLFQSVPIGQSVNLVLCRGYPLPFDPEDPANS
row,Binder,pKd
1,B1,below the threshold
2,B2,below the threshold

# Molecular target: DLG5_1, Q8TDM6
# Experiment: holdup assay
# Set-up: key: below the threshold = too weak to quantify, mostly under pKd 3.1 to 4
# Conditions: plain residues with an end cap or a label only (N-terminal biotin on a linker: ado-ado)
# DLG5_1, Q8TDM6, sequence (Q8TDM6 617-713): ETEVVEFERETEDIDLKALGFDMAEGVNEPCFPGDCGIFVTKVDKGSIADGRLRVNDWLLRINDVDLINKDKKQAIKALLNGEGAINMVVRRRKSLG
row,Binder,pKd
1,B1,below the threshold
2,B2,below the threshold

# Molecular target: MAST1, Q9Y2H9
# Experiment: holdup assay
# Set-up: key: below the threshold = too weak to quantify, mostly under pKd 3.1 to 4
# Conditions: plain residues with an end cap or a label only (N-terminal biotin on a linker: ado-ado)
# MAST1, Q9Y2H9, sequence (Q9Y2H9 962-1065): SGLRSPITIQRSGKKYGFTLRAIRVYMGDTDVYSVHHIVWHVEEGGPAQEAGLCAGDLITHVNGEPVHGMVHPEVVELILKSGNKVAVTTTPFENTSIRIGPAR
row,Binder,pKd
1,B1,4.14
2,B2,below the threshold

# Molecular target: T3, TJP3_3, O95049
# Experiment: holdup assay
# Set-up: key: below the threshold = too weak to quantify, mostly under pKd 3.1 to 4
# Conditions: plain residues with an end cap or a label only (N-terminal biotin on a linker: ado-ado)
row,Binder,pKd
1,B1,below the threshold
2,B2,below the threshold

# Molecular target: T4, PARD3B_1, Q8TEW8
# Experiment: holdup assay
# Set-up: key: below the threshold = too weak to quantify, mostly under pKd 3.1 to 4
# Conditions: plain residues with an end cap or a label only (N-terminal biotin on a linker: ado-ado)
row,Binder,pKd
1,B1,below the threshold
2,B2,below the threshold

# Molecular target: T5, SNTG2, Q9NY99
# Experiment: holdup assay
# Set-up: key: below the threshold = too weak to quantify, mostly under pKd 3.1 to 4
# Conditions: plain residues with an end cap or a label only (N-terminal biotin on a linker: ado-ado)
row,Binder,pKd
1,B1,4.51
2,B2,below the threshold

# Molecular target: T6, SIPA1L2, Q9P2F8
# Experiment: holdup assay
# Set-up: key: below the threshold = too weak to quantify, mostly under pKd 3.1 to 4
# Conditions: plain residues with an end cap or a label only (N-terminal biotin on a linker: ado-ado)
row,Binder,pKd
1,B1,below the threshold
2,B2,below the threshold

# Molecular target: T7, DFNB31_1, Q9P202
# Experiment: holdup assay
# Set-up: key: below the threshold = too weak to quantify, mostly under pKd 3.1 to 4
# Conditions: plain residues with an end cap or a label only (N-terminal biotin on a linker: ado-ado)
row,Binder,pKd
1,B1,4.68
2,B2,below the threshold

# Molecular target: T8, RADIL, Q96JH8
# Experiment: holdup assay
# Set-up: key: below the threshold = too weak to quantify, mostly under pKd 3.1 to 4
# Conditions: plain residues with an end cap or a label only (N-terminal biotin on a linker: ado-ado)
row,Binder,pKd
1,B1,below the threshold
2,B2,below the threshold

# Molecular target: T9, LNX2_3, Q8N448
# Experiment: holdup assay
# Set-up: key: below the threshold = too weak to quantify, mostly under pKd 3.1 to 4
# Conditions: plain residues with an end cap or a label only (N-terminal biotin on a linker: ado-ado)
row,Binder,pKd
1,B1,below the threshold
2,B2,below the threshold

# Molecular target: MAGI2_4, Q86UL8
# Experiment: holdup assay
# Set-up: key: below the threshold = too weak to quantify, mostly under pKd 3.1 to 4
# Conditions: plain residues with an end cap or a label only (N-terminal biotin on a linker: ado-ado)
# MAGI2_4, Q86UL8, sequence (Q86UL8 772-865): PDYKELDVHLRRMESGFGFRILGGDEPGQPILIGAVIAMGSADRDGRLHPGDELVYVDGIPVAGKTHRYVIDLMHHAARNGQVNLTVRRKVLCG
row,Binder,pKd
1,B1,below the threshold
2,B2,below the threshold

# Molecular target: FRMPD2_1, Q68DX3
# Experiment: holdup assay
# Set-up: key: below the threshold = too weak to quantify, mostly under pKd 3.1 to 4
# Conditions: plain residues with an end cap or a label only (N-terminal biotin on a linker: ado-ado)
# FRMPD2_1, Q68DX3, sequence (Q68DX3 770-861): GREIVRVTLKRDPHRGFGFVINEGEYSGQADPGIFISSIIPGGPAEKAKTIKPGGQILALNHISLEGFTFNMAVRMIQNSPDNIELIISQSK
row,Binder,pKd
1,B1,below the threshold
2,B2,below the threshold

# Molecular target: Inadl_5, Q8NI35
# Experiment: holdup assay
# Set-up: key: below the threshold = too weak to quantify, mostly under pKd 3.1 to 4
# Conditions: plain residues with an end cap or a label only (N-terminal biotin on a linker: ado-ado)
# Inadl_5, Q8NI35, sequence (Q8NI35 673-780): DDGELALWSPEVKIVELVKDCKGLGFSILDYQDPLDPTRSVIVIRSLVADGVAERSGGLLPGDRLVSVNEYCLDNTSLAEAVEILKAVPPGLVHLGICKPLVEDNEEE
row,Binder,pKd
1,B1,below the threshold
2,B2,below the threshold

# Molecular target: T10, MPP2, Q14168
# Experiment: holdup assay
# Set-up: key: below the threshold = too weak to quantify, mostly under pKd 3.1 to 4
# Conditions: plain residues with an end cap or a label only (N-terminal biotin on a linker: ado-ado)
row,Binder,pKd
1,B1,below the threshold
2,B2,below the threshold

# Molecular target: T11, LIN7C, Q9NUP9
# Experiment: holdup assay
# Set-up: key: below the threshold = too weak to quantify, mostly under pKd 3.1 to 4
# Conditions: plain residues with an end cap or a label only (N-terminal biotin on a linker: ado-ado)
row,Binder,pKd
1,B1,4.11
2,B2,below the threshold

# Molecular target: DLG1_2, Q12959
# Experiment: holdup assay
# Set-up: key: below the threshold = too weak to quantify, mostly under pKd 3.1 to 4
# Conditions: plain residues with an end cap or a label only (N-terminal biotin on a linker: ado-ado)
# DLG1_2, Q12959, sequence (Q12959 314-412): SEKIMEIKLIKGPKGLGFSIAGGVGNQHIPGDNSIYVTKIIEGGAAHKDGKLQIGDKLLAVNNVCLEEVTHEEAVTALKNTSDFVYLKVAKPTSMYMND
row,Binder,pKd
1,B1,4.42
2,B2,below the threshold

# Molecular target: MAGI1_2, Q96QZ7
# Experiment: holdup assay
# Set-up: key: below the threshold = too weak to quantify, mostly under pKd 3.1 to 4
# Conditions: plain residues with an end cap or a label only (N-terminal biotin on a linker: ado-ado)
# MAGI1_2, Q96QZ7, sequence (Q96QZ7 456-580): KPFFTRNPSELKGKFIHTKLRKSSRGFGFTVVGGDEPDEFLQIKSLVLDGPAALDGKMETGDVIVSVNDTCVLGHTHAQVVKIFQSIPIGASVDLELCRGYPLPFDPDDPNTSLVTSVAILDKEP
row,Binder,pKd
1,B1,below the threshold
2,B2,below the threshold

# Molecular target: TJP2_1, Q9UDY2
# Experiment: holdup assay
# Set-up: key: below the threshold = too weak to quantify, mostly under pKd 3.1 to 4
# Conditions: plain residues with an end cap or a label only (N-terminal biotin on a linker: ado-ado)
# TJP2_1, Q9UDY2, sequence (Q9UDY2 24-128): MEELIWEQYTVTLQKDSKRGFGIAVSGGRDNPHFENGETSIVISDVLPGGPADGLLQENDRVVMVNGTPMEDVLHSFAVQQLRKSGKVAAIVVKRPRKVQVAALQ
row,Binder,pKd
1,B1,below the threshold
2,B2,below the threshold

# Molecular target: T12, GRIP1_3, Q9Y3R0
# Experiment: holdup assay
# Set-up: key: below the threshold = too weak to quantify, mostly under pKd 3.1 to 4
# Conditions: plain residues with an end cap or a label only (N-terminal biotin on a linker: ado-ado)
row,Binder,pKd
1,B1,below the threshold
2,B2,below the threshold

# Molecular target: GIPC2, Q8TF65
# Experiment: holdup assay
# Set-up: key: below the threshold = too weak to quantify, mostly under pKd 3.1 to 4
# Conditions: plain residues with an end cap or a label only (N-terminal biotin on a linker: ado-ado)
# GIPC2, Q8TF65, sequence (Q8TF65 112-203): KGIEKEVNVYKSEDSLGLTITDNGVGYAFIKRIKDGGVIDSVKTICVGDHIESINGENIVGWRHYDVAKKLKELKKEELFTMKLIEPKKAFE
row,Binder,pKd
1,B1,below the threshold
2,B2,below the threshold

# Molecular target: FRMPD3, Q5JV73
# Experiment: holdup assay
# Set-up: key: below the threshold = too weak to quantify, mostly under pKd 3.1 to 4
# Conditions: plain residues with an end cap or a label only (N-terminal biotin on a linker: ado-ado)
# FRMPD3, Q5JV73, sequence (Q5JV73 12-100): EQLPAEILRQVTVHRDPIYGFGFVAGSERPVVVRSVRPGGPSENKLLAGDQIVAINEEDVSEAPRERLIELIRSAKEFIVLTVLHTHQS
row,Binder,pKd
1,B1,below the threshold
2,B2,below the threshold

# Molecular target: GRIP2_7, Q9C0E4
# Experiment: holdup assay
# Set-up: key: below the threshold = too weak to quantify, mostly under pKd 3.1 to 4
# Conditions: plain residues with an end cap or a label only (N-terminal biotin on a linker: ado-ado)
# GRIP2_7, Q9C0E4, sequence (Q9C0E4 934-1023): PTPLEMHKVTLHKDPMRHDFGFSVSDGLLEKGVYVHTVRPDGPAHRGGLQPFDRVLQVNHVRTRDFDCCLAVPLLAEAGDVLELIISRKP
row,Binder,pKd
1,B1,below the threshold
2,B2,below the threshold
